Experimental data reported in the nanobody polyreactivity screen of Harvey et al. (2022).

Assay: yeast display, Sf9 membrane polyspecificity reagent, FACS + sequencing; frameworks hold sequencing errors
Method in brief: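 Nanobodies came from a synthetic yeast display library in Saccharomyces cerevisiae BJ5465, induced with galactose for 36–48 hours and stained for 1 hour at 4 °C with 10% biotinylated, detergent-solubilized Sf9 membrane reagent. Cells were enriched on streptavidin microbeads and then FACS-sorted, with low and high (top ~1%) gates set on anti-HA fluorescence for expression and streptavidin fluorescence for reagent binding. Each polyreactivity label reflects the gate a clone came from. Genes were amplified by colony PCR, sequenced by MiSeq 2 × 250 and filtered by CDR length.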

**Q.** For “QVQHVESGGGLVQAGGSLRLSCAASGSTFSANAMGWYRQAPGKERELVAVIRRGGSTTYADSVKGRFTISRDNAKNTVYLQMNSLKPEDTAVYYCNARVTLGRPLFTYLVRYEYWGQGTQVTVSS”, which “polyreactivity (PSR sort gate)” value is on record?
**A.** high polyreactivity

**Q.** Which “polyreactivity (PSR sort gate)” value does the source give for “QVQHVESGGGLVQAGGSLRLSCAASGSTFSKYAMGWYRLAPGKERELVAAINYGGTSTYYADSVKGRFTISRDNAKNTVYLQMNSLKPEDTAVYYCAVIYRRLYTGGQNPYDYWGQGTQVTVSS” here?
**A.** high polyreactivity

**Q.** With “QVQHVESGGGLVQAGGSLRLSCAASGSTFWRYAMGWYRQAPGKERELVAAISTSGGSTRYADSVKGRFTISRDNAKNTVYFQMKSLKPEDTEVYYCADRSVSSTSYGYWGQGTQVTVSS” as the sequence, how does the “polyreactivity (PSR sort gate)” value read?
**A.** high polyreactivity

**Q.** With “QVQHVESGGGLVQAGGSLRLSCAASGSTFYIYAMGWYRQAPGKERELVATITDGGSTNFADSVKGRFTISRDNAKNTVYLQMNSLKPEDTAVYYCNANVWTGYDYWGLGTQVTVSS” as the sequence, how does the “polyreactivity (PSR sort gate)” value read?
**A.** low polyreactivity

**Q.** Which “polyreactivity (PSR sort gate)” value does the source give for “QVQHVESGGGLVQAGGSLRLSCAASGSTFYLYAMGWYRQAPGTERELLAAITYSGDRTRYADSVKGRFTISRDNAKNTVYLQMNSLKPEDTAVYYCAAPYVGARNAYRMCYWGQGTQVTVSS” here?
**A.** high polyreactivity

**Q.** With “QVQHVESGGGLVQAGGSLRLSCAASGSTISNNAMGWYRQAPGKERELVAGINSSGGRTYYADSVKGRFTISRDNAKNTVYLQMNSLKPEDTAVYYCNADNFRRYGYWGQGTQVTVSS” as the sequence, how does the “polyreactivity (PSR sort gate)” value read?
**A.** high polyreactivity

**Q.** With “QVQHVESGGGLVQAGGSLRLSCAASGSTSDTNVMGWYRQDPGKERELVAAISYDDDRTYYADSVKGRFTISSDNAKNTVYLQMNSLKPEDTAVYYCATADDYPGDDYLEGGYWGQGTQVTVSS” as the sequence, how does the “polyreactivity (PSR sort gate)” value read?
**A.** low polyreactivity

**Q.** Which “polyreactivity (PSR sort gate)” value does the source give for “QVQHVESGGGLVQAGGSLRLSCAASGSTYGYYAMGWYRQAPGKERELVAAITSGGTTNYADSVKGRFTISRDNAKNTVYLQMNSLKPEDTAVYYCNAVGTFVRFWTDGRDGVTYDYWGQGTKVTVSS” here?
**A.** low polyreactivity

**Q.** For “QVQHVESGGGLVQAGGSLRLSCAASGTTFVLYAMGWYIQAPGKERELVAAITWSGGITYYADSVKGRFTISRDNAKNTVYLQMNSLKPEDTAVYYCNAEQKQYEKSYDYWGQGSQVTVSS”, which “polyreactivity (PSR sort gate)” value is on record?
**A.** low polyreactivity

**Q.** With “QVQHVESGGGLVQAGGSLRLSCAASGYTFRSNTMGWYRQAPGKERELVAAISGRGSSTYYADSVKGRFTISRDNAKNTVYLQMNSLKPEDTAVYYCAAQSKYYQYYSWGQGTQVTVSS” as the sequence, how does the “polyreactivity (PSR sort gate)” value read?
**A.** high polyreactivity

**Q.** Which “polyreactivity (PSR sort gate)” value does the source give for “QVQHVESGGGLVQAGGSLRLSCAASGYTFYFYAMGWYRQAPGKERELVAAITGGGTTSYADSVKGRFTISRDNAKNTVYLQMNSLKPEDTAVYYCNVLFADKSDYWGPGTQVTVSS” here?
**A.** low polyreactivity

**Q.** Which “polyreactivity (PSR sort gate)” value does the source give for “QVQHVESGGGLVQAGGSLRLSCAASVRTLYYYAMGWYRQAPGKERELVAAISGGGRTYYADSVKGRFTISRDNAKNTVYLQMNSLKPEDTAVYYCASRYRKSGLDNYWGQGTQVTVSS” here?
**A.** high polyreactivity

**Q.** For “QVQHVESGGGLVQAGGSLRLSCAATGRIFKYYARGWYTQAPGKERELVAAISSTGGRTYYADSVKGRFTNSRDNAKNTVYLQMNSLKPEDTAVFSCAADYAWGDPGRARFGYWGQGTQVTVSS”, which “polyreactivity (PSR sort gate)” value is on record?
**A.** high polyreactivity

**Q.** For “QVQHVESGGGLVQAGGSLRLSCAAYGSIFVYYAMGWYRKAPGKERDLFAAISSSGDTTYYADSVKGRYTISRDNAKNTVYLQMNSLKPEDTAVYYCAARVRVYRHASNYYWGQCTQVTVSS”, which “polyreactivity (PSR sort gate)” value is on record?
**A.** high polyreactivity

**Q.** With “QVQHVESGGGLVQAGGSLRLSCASSGRTFYEYAMGWYRQAPGKERELVAGITSGGSTNYADSVKGRFTISRDNAKNTVYLQMNSLKPEDTAVYYCAASYWGYEYDYWGQGTQVTVSS” as the sequence, how does the “polyreactivity (PSR sort gate)” value read?
**A.** low polyreactivity

**Q.** Which “polyreactivity (PSR sort gate)” value does the source give for “QVQHVESGGGLVQAGGSLRLSCDASGRIFAKYAMGWYRQAHGKERELVAGISWGGGSTYYADSVKGRFTISRDNAKNTVYLQMNSLKPEDTAVYYCAARIPKQRDVRGSGMNYWGQGTQVTVSS” here?
**A.** high polyreactivity

**Q.** With “QVQHVESGGGLVQAGGSLRLSCGASGITLYGYAMGWYRQAPGKEREFVAAISRSGDRTYYADSVKGRFTISRDNAKNTVYLQMNSLKPEDTAVYYCNAWRYDYWGQGTQVTVSS” as the sequence, how does the “polyreactivity (PSR sort gate)” value read?
**A.** high polyreactivity

**Q.** Which “polyreactivity (PSR sort gate)” value does the source give for “QVQHVESGGGLVQAGGSLRLSGAASGSTFPTIAMGWNRQAPGKEREWVADITIRAGGTSYADSVKGRFTISRDNAKNSVYLQMNSLKPQDTAVFYCARSKSSELKRLLYDSWGEGTQVTVSS” here?
**A.** low polyreactivity

**Q.** Which “polyreactivity (PSR sort gate)” value does the source give for “QVQHVESGGGLVQAGGSLRLSSAASGSIFTFYAMGWSRQAPGKEMELVADITGRGSRTYYADSVTGRFTISRDNAKNTVYLKMNSLKPEDTAVYYCAAGHDRYYQSEYGYWGQGTQVTVSS” here?
**A.** high polyreactivity

**Q.** With “QVQHVESGGGLVQAGGSLRLTCAASGRIYASNSKGWYRQETGKERELFATSRVGGGSTYYADSVKGRFTISRDNAKNTVYLQRNSLKQEDTAVYYWAASFRDDFPQRLDFWGQGTQVTVSS” as the sequence, how does the “polyreactivity (PSR sort gate)” value read?
**A.** low polyreactivity

**Q.** Which “polyreactivity (PSR sort gate)” value does the source give for “QVQHVESGGGLVQAGGSLRLTCAASGSTSPTNVMGWYRQAPGKERELVAAISYSGGRTYYADSVKGRFTISRDNAKKTVYLQMNSLKPEDTAVYYCAARSLKRKYESWGQGTQVTVSS” here?
**A.** high polyreactivity

**Q.** Which “polyreactivity (PSR sort gate)” value does the source give for “QVQHVESGGGLVQAGGSLSLSCAASGFIFSAYAMGWYRRAAGKERKLVDAITRSGGITDYADSVKGRFTISRDIAKNTVYLQMNSLKPEDTADYYCAALRVQQVKSYYYWGQGTQVTVSW” here?
**A.** high polyreactivity
